Experimental data as given in IntAct's records for PubMed 19400808.

B1: Nitrogen regulatory protein (Escherichia coli (strain K12)), P69829 (parent)
chain: MTNNDTTLQLSSVLNRECTRSRVHCQSKKRALEIISELAAKQLSLPPQVVFEAILTREKMGSTGIGNGIAIPHGKLEEDTLRAVGVFVQLETPIAFDAIDNQPVDLLFALLVPADQTKTHLHTLSLVAKRLADKTICRRLRAAQSDEELYQIITDTEGTPDEA
partner: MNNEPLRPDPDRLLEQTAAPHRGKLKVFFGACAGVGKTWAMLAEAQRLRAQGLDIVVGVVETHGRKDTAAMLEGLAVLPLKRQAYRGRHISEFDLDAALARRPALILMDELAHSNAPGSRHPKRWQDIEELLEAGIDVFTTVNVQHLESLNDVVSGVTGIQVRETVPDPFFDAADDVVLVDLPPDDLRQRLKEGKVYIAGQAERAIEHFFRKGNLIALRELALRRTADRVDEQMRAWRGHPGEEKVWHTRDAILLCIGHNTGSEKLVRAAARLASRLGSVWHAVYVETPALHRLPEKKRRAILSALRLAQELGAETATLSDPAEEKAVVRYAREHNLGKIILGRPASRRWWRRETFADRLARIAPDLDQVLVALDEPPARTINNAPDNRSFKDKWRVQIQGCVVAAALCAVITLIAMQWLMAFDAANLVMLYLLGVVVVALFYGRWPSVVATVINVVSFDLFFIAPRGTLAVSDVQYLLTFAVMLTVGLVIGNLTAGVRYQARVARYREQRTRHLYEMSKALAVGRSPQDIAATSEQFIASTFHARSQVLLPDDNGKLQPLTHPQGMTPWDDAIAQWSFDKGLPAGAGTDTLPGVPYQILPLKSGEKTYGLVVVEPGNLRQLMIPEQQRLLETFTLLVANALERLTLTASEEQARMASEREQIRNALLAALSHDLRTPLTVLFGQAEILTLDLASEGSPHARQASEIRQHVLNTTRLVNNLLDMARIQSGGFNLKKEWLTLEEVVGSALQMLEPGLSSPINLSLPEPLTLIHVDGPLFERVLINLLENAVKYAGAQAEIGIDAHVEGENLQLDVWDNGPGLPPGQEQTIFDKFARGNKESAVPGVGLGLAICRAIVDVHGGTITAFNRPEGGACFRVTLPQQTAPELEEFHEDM

Variants of: B1
Conditions: with kdpd_ecoli kdpD

Row | Variant | effect of a mutation on the interaction
1 | H73A | increasing interaction strength
